T1: human Calcitonin Gene Related Peptide alpha (C-terminal amide (-NH2 printed after the last residue F; the filing words it as 'the N-terminal phenylalanine is amidated'); 125I radiolabeled in the receptor binding assay of Example 6)
T1 peptide: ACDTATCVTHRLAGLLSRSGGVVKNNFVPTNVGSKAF


Target: T1, human Calcitonin Gene Related Peptide …
Assay: ELISA

Row | EC50 | Binder
1 | 0.154 nM | Antibody Ab3 (antibody) heavy: not shown light: QVLTQSPSSLSASVGDRVTINCQASQSVYDNNYLAWYQQKPGKVPKQLIYSTSTLASGVPSRFSGSGSGTDFTLTISSLQPEDVATYYCLGSYDCSSGDCFVFGGGTKVEIKRTVAAPSVFIFPPSDEQLKSGTASVVCLLNNFYPREAKVQWKVDNALQSGNSQESVTEQDSKDSTYSLSSTLTLSKADYEKHKVYACEVTHQGLSSPVTKSFNRGEC
2 | 0.083 nM | Antibody Ab2 (antibody) heavy: not shown light: QVLTQSPSSLSASVGDRVTINCQASQSVYDNNYLAWYQQKPGKVPKQLIYSTSTLASGVPSRFSGSGSGTDFTLTISSLQPEDVATYYCLGSYDCSSGDCFVFGGGTKVEIKRTVAAPSVFIFPPSDEQLKSGTASVVCLLNNFYPREAKVQWKVDNALQSGNSQESVTEQDSKDSTYSLSSTLTLSKADYEKHKVYACEVTHQGLSSPVTKSFNRGEC
3 | 0.103 nM | Antibody Ab1 (antibody, V domains shown) VH: QSLEESGGRLVTPGTPLTLTCTVSGLDLSSYYMQWVRQAPGKGLEWIGVIGINDNTYYASWAKGRFTISRASSTTVDLKMTSLTTEDTATYFCARGDIWGPGTLVTVSS VL: QVLTQTASPVSAAVGSTVTINCQASQSVYDNNYLAWYQQKPGQPPKQLIYSTSTLASGVSSRFKGSGSGTQFTLTISDLECADAATYYCLGSYDCSSGDCFVFGGGTEVVVKR
4 | 0.088 nM | Antibody Ab4 (antibody, V domains shown) VH: QSLEESGGRLVTPGTPLTLTCSVSGIDLSGYYMNWVRQAPGKGLEWIGVIGINGATYYASWAKGRFTISKTSSTTVDLKMTSLTTEDTATYFCARGDIWGPGTLVTVSS VL: QVLTQTPSPVSAAVGSTVTINCQASQSVYHNTYLAWYQQKPGQPPKQLIYDASTLASGVPSRFSGSGSGTQFTLTISGVQCNDAAAYYCLGSYDCTNGDCFVFGGGTEVVVKR

From US20120294802A1 (published 2012)
